Data reported in paper PMC5951680.

Target: zebrafish TRPC4 (TRPC4DR) (Danio rerio (zebrafish))
Test: cryo-EM structure; TRPC4DR in amphipols A8-35, unliganded (apo), closed state; buffer C (PBS pH 7.4, 1 mM TCEP); 0.25 mg/ml on the grid; C4 symmetry imposed; 3.6 Å

stoichiometry N: 4
Substance: zebrafish TRPC4 (TRPC4DR) (natural protein)
